Test [1] concerns the target Y1R-eYFP (wild-type Y1R) (human) (UniProt P25929).
The target is the same in test [2]. This is another data set of the same source.

Our source for the signalling assay (Ca2+), decrease in potency compared to full-length NPY and signalling assay, increase of EC50 compared to NPY values is PMC8844075, “Structural basis of neuropeptide Y signaling through Y1 receptor” (Nature Communications, 2022).

Chain of Y1R-eYFP (wild-type Y1R) (human) (P25929 whole entry): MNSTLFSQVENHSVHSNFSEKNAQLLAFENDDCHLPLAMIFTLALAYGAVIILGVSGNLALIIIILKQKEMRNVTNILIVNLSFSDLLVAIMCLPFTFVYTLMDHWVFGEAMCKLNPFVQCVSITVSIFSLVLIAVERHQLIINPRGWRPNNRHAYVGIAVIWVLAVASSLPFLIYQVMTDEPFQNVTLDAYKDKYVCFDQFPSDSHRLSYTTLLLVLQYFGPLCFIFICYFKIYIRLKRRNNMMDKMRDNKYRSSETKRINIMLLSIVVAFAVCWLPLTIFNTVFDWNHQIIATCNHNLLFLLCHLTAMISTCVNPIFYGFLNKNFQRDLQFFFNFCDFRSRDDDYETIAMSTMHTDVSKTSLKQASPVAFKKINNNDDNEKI

In test [1], ARYYSALRHYINLITRQRY [NPY(18–36)] registered a signalling assay (Ca2+), decrease in potency compared to full-length NPY of 300 fold. In turn, APLEPVYPGDNATPEQMAQYAADLRRYINMLTRPRY [pancreatic polypeptide (PP)] returned a signalling assay, increase of EC50 compared to NPY in test [2] of 64 fold.
